# Laboratory results taken from US20180280496A1.
# Several values for one entry are separate records, joined by “and”; a condition that tells them apart may be missing. Equal values may be shown once. Read-outs that look alike come from different tables or passages of the source.
# T1: A*03:01 (human), P04439
# T1 chain: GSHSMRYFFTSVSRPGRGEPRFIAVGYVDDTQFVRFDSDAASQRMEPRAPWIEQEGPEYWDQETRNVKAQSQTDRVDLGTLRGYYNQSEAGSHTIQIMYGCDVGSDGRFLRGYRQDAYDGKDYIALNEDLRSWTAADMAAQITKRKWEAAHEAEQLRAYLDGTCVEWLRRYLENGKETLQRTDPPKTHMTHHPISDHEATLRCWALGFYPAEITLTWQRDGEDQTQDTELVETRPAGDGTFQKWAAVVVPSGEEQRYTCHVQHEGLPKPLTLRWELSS
# T2: H-2Kb (mouse), P01901
# T2 chain: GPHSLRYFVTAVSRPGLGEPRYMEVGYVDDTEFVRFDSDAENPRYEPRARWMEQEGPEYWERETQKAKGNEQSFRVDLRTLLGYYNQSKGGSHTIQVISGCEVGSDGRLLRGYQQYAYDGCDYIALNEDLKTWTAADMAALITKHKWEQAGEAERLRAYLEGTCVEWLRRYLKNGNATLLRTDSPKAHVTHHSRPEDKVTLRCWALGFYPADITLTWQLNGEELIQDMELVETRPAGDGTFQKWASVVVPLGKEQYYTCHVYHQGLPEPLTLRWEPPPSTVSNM
# Experiments:
# A*02:01 (human), P04439 [1] = test: ProImmune REVEAL MHC class I-peptide binding assay, A*02:01
# B*27:05 (human), P01889 = test: ProImmune REVEAL MHC class I-peptide binding assay
# A*24:02 (human), P04439 [2] = settings: modification not given
# A*02:01 (human), P04439 [3] = settings: chains peptide; modification not given
# A*24:02 (human), P04439 [4] = settings: modification not given; remark: listed apart in the source
# A*11:01 (human), P04439 [5] = settings: modification not given
# A*03:01 (human), P04439 [6] = settings: modification not given
# A*24:02 (human), P04439 [7] = settings: modification not given; remark: listed apart in the source
# A*11:01 (human), P04439 [8] = settings: modification not given; remark: listed apart in the source
# A*11:01 (human), P04439 [9] = settings: modification not given; remark: listed apart in the source
# A*03:01 (human), P04439 [10] = target: T1, A*03:01 (human), P04439; settings: modification not given
# A*02:01 (human), P04439 [11] = settings: chains peptide; modification not given; remark: listed apart in the source
# A*03:01 (human), P04439 [12] = test: ProImmune REVEAL MHC class I-peptide binding assay
# A*11:01 (human), P04439 [13] = test: ProImmune REVEAL MHC class I-peptide binding assay
# A*11:01 (human), P04439 [14] = settings: modification not given; remark: listed apart in the source
# A*24:02 (human), P04439 [15] = settings: modification not given; remark: listed apart in the source
# A*02:01 (human), P04439 [16] = test: ProImmune REVEAL MHC class I-peptide binding assay
# A*24:02 (human), P04439 [17] = test: ProImmune REVEAL MHC class I-peptide binding assay
# H-2Kb (mouse), P01901 = target: T2, H-2Kb (mouse), P01901; test: ProImmune REVEAL MHC class I-peptide binding assay
# A*11:01 (human), P04439 [18] = settings: modification not given; remark: listed apart in the source
# A*03:01 (human), P04439 [19] = target: T1, A*03:01 (human), P04439; settings: modification not given
# HLA-B*40:01 [20] = settings: chains peptide; modification not given
# HLA-A*32:01 [21] = settings: chains peptide; modification not given
# A*11:01 (human), P04439 [22] = settings: modification not given; remark: listed apart in the source
# HLA-B*40:01 [23] = settings: chains peptide; modification not given; remark: listed apart in the source
# HLA-A*32:01 [24] = settings: chains peptide; modification not given; remark: listed apart in the source
# HLA-B*15:01 = settings: chains peptide; modification not given
# HLA-B*40:01 [25] = settings: chains peptide; modification not given; remark: listed apart in the source
# HLA-A*32:01 [26] = settings: chains peptide; modification not given; remark: listed apart in the source
# A*11:01 (human), P04439 [27] = settings: modification not given; remark: listed apart in the source
# A*11:01 (human), P04439 [28] = settings: modification not given; remark: listed apart in the source
# A*03:01 (human), P04439 [29] = settings: modification not given; remark: listed apart in the source
binder,measurement,setting,value
TALTGATEI (modifications not checked),REVEAL Score,"A*02:01 (human), P04439 [1]",0.9
FKLTYQNKV (modifications not checked),REVEAL score at 0 h,"B*27:05 (human), P01889",53.7
SYVMCTGSF [SEQ ID NO: 308 serotype 1],IC50,"A*24:02 (human), P04439 [2]",104 nM
RQWFFDLPL,REVEAL Score,"A*02:01 (human), P04439 [1]",80.5
same,IC50,"A*02:01 (human), P04439 [3]",12 nM and 39 nM
SYTMCSGKF [SEQ ID NO: 308 serotype 4],IC50,"A*24:02 (human), P04439 [4]",222 nM
ARGYISTRV (modifications not checked),REVEAL score at 0 h,"B*27:05 (human), P01889",125
ALKLSWFKK [SEQ ID NO: 311 serotype 1],IC50,"A*11:01 (human), P04439 [5]",59 nM
same,IC50,"A*03:01 (human), P04439 [6]",42 nM
RRGDLPVWL (modifications not checked),REVEAL score at 0 h,"B*27:05 (human), P01889",145
SYAMCLNTF [SEQ ID NO: 308 serotype 3],IC50,"A*24:02 (human), P04439 [7]",540 nM
VTFKNPHAK [SEQ ID NO: 309 serotype 2],IC50,"A*11:01 (human), P04439 [8]",17 nM
ALKINWYRK [SEQ ID NO: 311 serotype 3],IC50,"A*11:01 (human), P04439 [9]",376 nM
same,IC50,"A*03:01 (human), P04439 [10]",193 nM
KQWFLDLPL,REVEAL Score,"A*02:01 (human), P04439 [1]",86
same,IC50,"A*02:01 (human), P04439 [11]",11 nM
MCHATFTMR (modifications not checked),REVEAL score at 0 h,"A*03:01 (human), P04439 [12]",86.8
same,REVEAL score at 0 h,"A*11:01 (human), P04439 [13]",91
VTFKNAHAK [SEQ ID NO: 309 serotype 3],IC50,"A*11:01 (human), P04439 [14]",17 nM
SYSMCTGKF [SEQ ID NO: 308 serotype 2],IC50,"A*24:02 (human), P04439 [15]",115 nM
LMCHATFTM (modifications not checked),REVEAL score at 0 h,"A*02:01 (human), P04439 [16]",72.9
same,REVEAL score at 0 h,"A*24:02 (human), P04439 [17]",99.5
same,REVEAL score at 0 h,"B*27:05 (human), P01889",98.2
same,REVEAL score at 0 h,"H-2Kb (mouse), P01901",59
QLKLNWFKK [SEQ ID NO: 311 serotype 2],IC50,"A*11:01 (human), P04439 [18]",778 nM
same,IC50,"A*03:01 (human), P04439 [19]",151 nM
KQWFLDLPL [SEQ ID NO: 310 serotype 4],IC50,HLA-B*40:01 [20],398 nM
same,IC50,HLA-A*32:01 [21],8 nM
GEAAAIFMT (modifications not checked),REVEAL score at 0 h,"A*02:01 (human), P04439 [16]",74.3
same,REVEAL score at 0 h,"A*11:01 (human), P04439 [13]",50.3
same,REVEAL score at 0 h,"A*24:02 (human), P04439 [17]",58.9
VTFKVPHAK [SEQ ID NO: 309 serotype 4],IC50,"A*11:01 (human), P04439 [22]",14 nM
KQWFLDLPL [SEQ ID NO: 310 serotype 1],IC50,HLA-B*40:01 [23],398 nM
same,IC50,HLA-A*32:01 [24],8 nM
RQWFFDLPL [SEQ ID NO: 310 serotype 3],IC50,HLA-B*15:01,80 nM
same,IC50,HLA-B*40:01 [25],51 nM
same,IC50,HLA-A*32:01 [26],7 nM
VTFKTAHAK [SEQ ID NO: 309 serotype 1],IC50,"A*11:01 (human), P04439 [27]",16 nM
ALTLHWFRK [SEQ ID NO: 311 serotype 4],IC50,"A*11:01 (human), P04439 [28]",47 nM
same,IC50,"A*03:01 (human), P04439 [29]",34 nM
